Source: paper PMC10786891, “Massively parallel profiling of RNA-targeting CRISPR-Cas13d”
Where a chain is given by its changes, count along the chain named. Names and notes keep the numbering of the source.

B1: target 1 insG 3' of 8,insU 3' of 2 (mixed)
RNA 1: CACCCGUGCAAAAAUGCAGGGGUCUAAAACUGAGCGGAUAACCUCUCUAUGG
RNA 2: GGGAAUGGAUCCACAUCUACGAAUUCGUACCAUAGAGAGGUUAUGCCGCUCUACCGAGAUCGGAAGAGCACACGU
B2: target 1 insU 3' of 7,insU 3' of 2 (mixed)
RNA 1: B1 RNA 1
RNA 2: B1 RNA 2 with G45C, C46U
B3: target 1 insU 3' of 2,insG 3' of 1 (mixed)
RNA 1: B1 RNA 1
RNA 2: B1 RNA 2 with G45C, C47G, G48C, C49U, U50C, C51U, U52A, A53G
B4: target 1 G5C,C22A (mixed)
RNA 1: B1 RNA 1
RNA 2: GGGAAUGGAUCCACAUCUACGAAUUCGUAACAUAGAGAGGUUAUCCCCUCACCGAGAUCGGAAGAGCACACGU
B5: target 1 insA 3' of 19,insC 3' of 15 (mixed)
RNA 1: B1 RNA 1
RNA 2: GGGAAUGGAUCCACAUCUACGAAUUCGUACCAUAAGAGCAGGUUAUCCGCUCACCGAGAUCGGAAGAGCACACGU
B6: target 1 insU 3' of 12,insC 3' of 3 (mixed)
RNA 1: B1 RNA 1
RNA 2: B1 RNA 2 with A43U, U44A, G45U, U52C
B7: target 1 insU 3' of 15,insU 3' of 9 (mixed)
RNA 1: B1 RNA 1
RNA 2: B5 RNA 2 with A35G, G36A, A37G, G38U, C39A, A40G, G42U, U44A, A45U
B8: target 1 insU 3' of 14,insU 3' of 7 (mixed)
RNA 1: B1 RNA 1
RNA 2: GGGAAUGGAUCCACAUCUACGAAUUCGUACCAUAGAGAUGGUUAUCUCGCUCACCGAGAUCGGAAGAGCACACGU
B9: target 1 C2A,A9C (mixed)
RNA 1: B1 RNA 1
RNA 2: B4 RNA 2 with A30C, A43C, C47G, C50A
B10: target 1 insA 3' of 6,insC 3' of 1 (mixed)
RNA 1: B1 RNA 1
RNA 2: B1 RNA 2 with G45C, C47A, U52A, A53C
B11: target 1 C6U,U10A (mixed)
RNA 1: B1 RNA 1
RNA 2: B4 RNA 2 with A30C, U42A, C46U, C47G
B12: target 1 insC 3' of 22,insA 3' of 12 (mixed)
RNA 1: B1 RNA 1
RNA 2: B5 RNA 2 with A32C, U33A, A34U, C39A, A40G, G42A
B13: target 1 insU 3' of 13,insC 3' of 3 (mixed)
RNA 1: B1 RNA 1
RNA 2: B1 RNA 2 with G40U, U41G, A43U, U44A, G45U, U52C
B14: target 1 insA 3' of 11,insA 3' of 10 (mixed)
RNA 1: B1 RNA 1
RNA 2: B8 RNA 2 with U39G, G41U, U42A, U45A, C46U, U47C
B15: target 1 insG 3' of 6,insC 3' of 5 (mixed)
RNA 1: B1 RNA 1
RNA 2: B1 RNA 2 with G45C, C47G, U50C, C51U, U52C
B16: target 1 insA 3' of 12,insC 3' of 12 (mixed)
RNA 1: B1 RNA 1
RNA 2: B8 RNA 2 with U39G, G41A, U42C, A44U, U45A, C46U, U47C
B17: target 1 insC 3' of 18,insA 3' of 6 (mixed)
RNA 1: B1 RNA 1
RNA 2: B8 RNA 2 with G35C, A36G, G37A, A38G, U39A, U47C, C48A
B18: target 1 insG 3' of 16,insC 3' of 15 (mixed)
RNA 1: B1 RNA 1
RNA 2: B5 RNA 2 with A35G, G36A, A37G
B19: target 1 insU 3' of 20,insA 3' of 19 (mixed)
RNA 1: B1 RNA 1
RNA 2: B5 RNA 2 with A34U, G36A, A37G, G38A, C39G
B20: target 1 insU 3' of 18,insA 3' of 6 (mixed)
RNA 1: B1 RNA 1
RNA 2: B8 RNA 2 with G35U, A36G, G37A, A38G, U39A, U47C, C48A
B21: target 1 insC 3' of 14,insG 3' of 10 (mixed)
RNA 1: B1 RNA 1
RNA 2: B8 RNA 2 with U39C, A44G, U45A, C46U, U47C
B22: target 1 insU 3' of 17,insU 3' of 15 (mixed)
RNA 1: B1 RNA 1
RNA 2: B5 RNA 2 with A35G, G36U, C39U
B23: target 1 insC 3' of 19,insU 3' of 9 (mixed)
RNA 1: B1 RNA 1
RNA 2: B5 RNA 2 with A34C, C39A, A40G, G42U, U44A, A45U
B24: target 1 insA 3' of 11,insU 3' of 4 (mixed)
RNA 1: B1 RNA 1
RNA 2: B1 RNA 2 with U42A, A43U, U44A, G45U, C51U, U52C
B25: target 1 C2A,C7G (mixed)
RNA 1: B1 RNA 1
RNA 2: B4 RNA 2 with A30C, C45G, C47G, C50A
B26: target 1 insG 3' of 21,insA 3' of 4 (mixed)
RNA 1: B1 RNA 1
RNA 2: GGGAAUGGAUCCACAUCUACGAAUUCGUACCGAUAGAGAGGUUAUCCGCAUCACCGAGAUCGGAAGAGCACACGU
B27: target 1 C2G,U8A (mixed)
RNA 1: B1 RNA 1
RNA 2: B4 RNA 2 with A30C, U44A, C47G, C50G
B28: target 1 insC 3' of 22,insG 3' of 16 (mixed)
RNA 1: B1 RNA 1
RNA 2: B5 RNA 2 with A32C, U33A, A34U, C39G
B29: target 1 insG 3' of 6 (mixed)
RNA 1: B1 RNA 1
RNA 2: GGGAAUGGAUCCACAUCUACGAAUUCGUACCAUAGAGAGGUUAUCCGGCUCACCGAGAUCGGAAGAGCACACGU
B30: target 1 insU 3' of 15,insU 3' of 12 (mixed)
RNA 1: B1 RNA 1
RNA 2: B8 RNA 2 with A38U, U39A, A44U, U45A, C46U, U47C
B31: target 1 C2U,C7A (mixed)
RNA 1: B1 RNA 1
RNA 2: B4 RNA 2 with A30C, C45A, C47G, C50U
B32: target 1 G17A,A18C (mixed)
RNA 1: B1 RNA 1
RNA 2: B4 RNA 2 with A30C, A34C, G35A, C47G
B33: target 1 insA 3' of 12,insA 3' of 3 (mixed)
RNA 1: B1 RNA 1
RNA 2: B1 RNA 2 with U41A, A43U, U44A, G45U, C51A, U52C

Molecular target: T1, EsCas13d, nuclease-dead (Eubacterium siraeum, UniProt B0MS50, R295A;H300A;R849A;H854A)
T1 sequence: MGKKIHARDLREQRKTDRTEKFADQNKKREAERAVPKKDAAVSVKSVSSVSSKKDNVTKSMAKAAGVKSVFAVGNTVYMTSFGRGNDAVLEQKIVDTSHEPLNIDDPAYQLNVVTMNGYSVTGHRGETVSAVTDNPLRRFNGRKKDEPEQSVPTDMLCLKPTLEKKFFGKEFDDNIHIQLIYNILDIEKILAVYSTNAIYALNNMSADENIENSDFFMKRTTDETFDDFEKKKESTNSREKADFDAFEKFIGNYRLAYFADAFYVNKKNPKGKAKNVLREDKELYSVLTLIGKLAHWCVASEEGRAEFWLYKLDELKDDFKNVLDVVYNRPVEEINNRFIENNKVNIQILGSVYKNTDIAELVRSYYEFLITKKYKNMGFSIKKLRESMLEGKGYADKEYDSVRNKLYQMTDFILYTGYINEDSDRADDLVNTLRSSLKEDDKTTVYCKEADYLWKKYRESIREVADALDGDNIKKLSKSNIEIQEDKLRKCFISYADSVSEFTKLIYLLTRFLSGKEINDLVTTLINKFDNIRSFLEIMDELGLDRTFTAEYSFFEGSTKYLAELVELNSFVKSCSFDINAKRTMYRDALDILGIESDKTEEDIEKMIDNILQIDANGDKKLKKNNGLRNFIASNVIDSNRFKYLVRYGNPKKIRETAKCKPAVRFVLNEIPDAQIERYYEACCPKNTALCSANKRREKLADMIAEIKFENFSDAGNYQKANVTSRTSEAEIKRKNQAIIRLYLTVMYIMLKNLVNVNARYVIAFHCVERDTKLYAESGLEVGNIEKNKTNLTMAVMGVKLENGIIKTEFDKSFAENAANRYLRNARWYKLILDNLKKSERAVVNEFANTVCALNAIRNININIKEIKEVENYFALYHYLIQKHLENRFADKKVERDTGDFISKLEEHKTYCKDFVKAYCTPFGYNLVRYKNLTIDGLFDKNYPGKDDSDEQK
Assay: crRNA (strand 1, pre-loaded); Mg2+; 40 mM Tris-HCl pH 7.5, 150 mM NaCl, 6 mM MgCl2, 1 mM DTT, 0.1% Tween-20, 0.2 mg/ml BSA; 25 C; 10 min per concentration, then washed
Conditions: tags: His6-TwinStrep-SUMO cleaved; N-terminal SNAP kept (SNAP-Surface 488); label: 3' end held by stalled T7 RNA polymerase

Row | Binder | Kd
1 | B1 | 15.1 ± 0.6 nM
2 | B2 | 21.3 ± 1.1 nM
3 | B3 | 12.2 ± 0.6 nM
4 | B4 | 17.3 ± 1.9 nM
5 | B5 | 52 ± 9 nM
6 | B6 | 8.3 ± 0.6 nM
7 | B7 | 59 ± 16 nM
8 | B8 | 77 ± 9 nM
9 | B9 | 12.2 ± 0.4 nM
10 | B10 | 17.6 ± 1.1 nM
11 | B11 | 9.8 ± 0.4 nM
12 | B12 | 42 ± 5 nM
13 | B13 | 25 ± 5 nM
14 | B14 | 9.4 ± 0.5 nM
15 | B15 | 13.9 ± 1.1 nM
16 | B16 | 30.4 ± 1.8 nM
17 | B17 | 32.3 ± 1.5 nM

Row | Binder | Kd
18 | B18 | 28.8 ± 2.1 nM
19 | B19 | 20.9 ± 1.4 nM
20 | B20 | 32.6 ± 1.1 nM
21 | B21 | 43 ± 10 nM
22 | B22 | 64 ± 28 nM
23 | B23 | ~80 nM
24 | B24 | 13.7 ± 0.9 nM
25 | B25 | 15.4 ± 0.9 nM
26 | B26 | 41 ± 10 nM
27 | B27 | 13.5 ± 0.8 nM
28 | B28 | 75 ± 21 nM
29 | B29 | 11.4 ± 0.5 nM
30 | B30 | 8.1 ± 0.4 nM
31 | B31 | 6.8 ± 0.5 nM
32 | B32 | 67 ± 10 nM
33 | B33 | 20.5 ± 1.2 nM
